The data set is described as follows: self-splicing fitness, log relative to wild type (ln ratio); higher = more splicing; Tetrahymena group I intron in knt gene, E. coli kanamycin selection, DiMSum; sequences stand for … in CUCUCU…GGAGGGAAAAGUUAUCAGGCAUGCACCUGGUAGCUAGUCUUUAAACCAAUAGAUUGCAUCGGUUUAAAAGGCAAGACCGUCAAAUUGCGGGAAAGGGGUCAACAGCCGUUCAGUACCAAGUCUCAGGGGAAACUUUGAGAUGGCCUUGCAAAGGGUAUGGUAAUAAGCUGACGGACAUGGUCCUAACCACGCAGCCAAGUCCUAAGUCAACAGAUCUUCUGUUGAUAUGGAUGCAGUUCACAGACUAAAUGUCGGUCGGGGAAGAUGUAUUCUUCUCAUAAGAUAUAGUCGGACCUCUCCUUAAUGGGAGCUAGCGGAUGAAGUGAUGCAACACUGGAGCCGCUGGGAACUAAUUUGUAUGCGAAAGUAUAUUGAUUAGUUUUGGAGUACUCGUGGUCG
An outline of the steps:
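Library with all eight P1ex-region intron nucleotides randomised, intron inside the knt kanamycin-resistance gene on pET-22b(+), in E. coli BL21(DE3). Cells grew overnight at 37°C or 30°C on LB agar with or without 25 μg/mL kanamycin (plus 100 μg/mL carbenicillin, 50 μM IPTG, 0.2% rhamnose), in six replicate transformations. Pooled colonies were amplicon-sequenced on Illumina HiSeq 2500. DiMSum fitness is the error-weighted combination of wild-type-normalised replicate fold changes, kanamycin versus none.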

± gives the uncertainty stated by the source.

From the supplement of paper PMC7877785 come the findings set out here.

On to AAUUAGCAAUAUUACGGAGU, for which the “self-splicing fitness (ln)” value is -2.69 ± 0.2 (30 °C) and -1.02 ± 0.17 (37 °C).
Taken in the same sequence, the figures for AGACAGCAAUAUUACGCUCA were -0.572 ± 0.096 and 0.589 ± 0.12.
As to AAAUAGCAAUAUUACGGAUC, the “self-splicing fitness (ln)” value reads like this: (30 °C) -1.18 ± 0.11; (37 °C) -0.569 ± 0.15.
As to UAGCAGCAAUAUUACGACUA, the “self-splicing fitness (ln)” value by setting is: (30 °C) 0.282 ± 0.1; (37 °C) 0.568 ± 0.13.
Consider ACGCAGCAAUAUUACGAACU, for which the “self-splicing fitness (ln)” value (30 °C) is -0.619 ± 0.062 and the “self-splicing fitness (ln)” value (37 °C) was -0.501 ± 0.081.
On the same counts, the results for AAACAGCAAUAUUACGUGGC are -3.05 ± 0.2 and -2.35 ± 0.14.
GGCCAGCAAUAUUACGAAGG: the “self-splicing fitness (ln)” value (37 °C) was -2.62 ± 0.33.
As to CGUGAGCAAUAUUACGGGUU, the “self-splicing fitness (ln)” value by setting is: (30 °C) -3.99 ± 0.46; (37 °C) -2.65 ± 0.29.
On the same counts, the results for AUUUAGCAAUAUUACGAAUU are -3.21 ± 0.35 and -1.85 ± 0.38.
With CGGAAGCAAUAUUACGUUCC, the “self-splicing fitness (ln)” value (30 °C) was -2.32 ± 0.48.
As to UGUCAGCAAUAUUACGCCCU, the “self-splicing fitness (ln)” value was -0.458 ± 0.13 (30 °C) and -0.00845 ± 0.19 (37 °C).
Taken in the same sequence, the figures for AAUCAGCAAUAUUACGAGAG were -1.82 ± 0.15 and -1.13 ± 0.13.
For the sequence AUAGAGCAAUAUUACGUUAU, the “self-splicing fitness (ln)” value by setting is: (30 °C) -0.975 ± 0.089; (37 °C) -0.177 ± 0.11.
Taken in the same sequence, the figures for CAACAGCAAUAUUACGAGGA were -3.65 ± 0.25 and -0.828 ± 0.1.
On the same counts, the results for CAGAAGCAAUAUUACGGUGA are -2.21 ± 0.096 and -1.13 ± 0.1.
As to UCCCAGCAAUAUUACGGGGU, the “self-splicing fitness (ln)” value is, setting by setting: (30 °C) -3.87 ± 0.27; (37 °C) -2.86 ± 0.22.
Taken in the same sequence, the figures for UCAAAGCAAUAUUACGGAAA were -2.64 ± 0.41 and -1.15 ± 0.19.
Taken in the same sequence, the figures for CCUUAGCAAUAUUACGGGCG were -1.64 ± 0.083 and -0.95 ± 0.093.
For the sequence AAGUAGCAAUAUUACGUGGU, the “self-splicing fitness (ln)” value was -3.68 ± 0.18 (30 °C) and -1.93 ± 0.15 (37 °C).
As to ACGCAGCAAUAUUACGAUGC, the “self-splicing fitness (ln)” value reads like this: (30 °C) -3.44 ± 0.27; (37 °C) -1.56 ± 0.21.
On the same counts, the results for UGCCAGCAAUAUUACGCUAA are -0.447 ± 0.084 and 0.0253 ± 0.095.
For CGCCAGCAAUAUUACGUGCU, the “self-splicing fitness (ln)” value by setting is: (30 °C) -3.27 ± 0.2; (37 °C) -3.23 ± 0.33.
On the same counts, the results for CUGAAGCAAUAUUACGCUCG are -0.21 ± 0.086 and -0.613 ± 0.087.
Taken in the same sequence, the figures for CGCUAGCAAUAUUACGGCGU were -4.23 ± 0.42 and -2.71 ± 0.21.
Taken in the same sequence, the figures for GACAAGCAAUAUUACGACCA were -0.459 ± 0.12 and -0.806 ± 0.13.
On to CGCCAGCAAUAUUACGCAAU, for which the “self-splicing fitness (ln)” value reads like this: (30 °C) -4.2 ± 0.21; (37 °C) -2.63 ± 0.22.
As for UGGAAGCAAUAUUACGGGCU, the “self-splicing fitness (ln)” value was -3.13 ± 0.27 (30 °C) and -1.32 ± 0.2 (37 °C).
On the same counts, the results for AUUAAGCAAUAUUACGGCAA are -0.363 ± 0.12 and 0.438 ± 0.15.
On the same counts, the results for UGCGAGCAAUAUUACGUUUA are -2.19 ± 0.16 and -2.99 ± 0.14.
Taken in the same sequence, the figures for CUACAGCAAUAUUACGGGGA were -3.52 ± 0.26 and -1.79 ± 0.16.
CUCAAGCAAUAUUACGCCUC: the “self-splicing fitness (ln)” value runs as follows: (30 °C) -2.98 ± 0.14; (37 °C) -2.97 ± 0.28.
On the same counts, the results for GUAUAGCAAUAUUACGAGGC are -2.1 ± 0.33 and -2.18 ± 0.47.
On the same counts, the results for CCCGAGCAAUAUUACGAUUA are -3.04 ± 0.24 and -2.4 ± 0.21.
As to CAUUAGCAAUAUUACGAAAG, the “self-splicing fitness (ln)” value by setting is: (30 °C) -0.84 ± 0.12; (37 °C) -0.567 ± 0.13.
Turning to CCCUAGCAAUAUUACGGAUA, the “self-splicing fitness (ln)” value (37 °C) is -2.73 ± 0.26.
As for UGAGAGCAAUAUUACGGUUG, the “self-splicing fitness (ln)” value by setting is: (30 °C) -2.6 ± 0.12; (37 °C) -2.64 ± 0.19.
Taken in the same sequence, the figures for UACUAGCAAUAUUACGCGGA were -2.97 ± 0.18 and -1.42 ± 0.16.
With UCACAGCAAUAUUACGCUCG, the “self-splicing fitness (ln)” value was -1.15 ± 0.086 (30 °C) and 0.16 ± 0.1 (37 °C).
Taken in the same sequence, the figures for GCCCAGCAAUAUUACGACUC were -0.305 ± 0.059 and 0.916 ± 0.087.
Taken in the same sequence, the figures for AAGAAGCAAUAUUACGUGUG were -2.3 ± 0.09 and -0.663 ± 0.081.
Taken in the same sequence, the figures for UUAAAGCAAUAUUACGGGAA were -0.821 ± 0.088 and -0.351 ± 0.12.
For UACCAGCAAUAUUACGACAA, the “self-splicing fitness (ln)” value reads like this: (30 °C) -0.483 ± 0.099; (37 °C) -0.494 ± 0.09.
On the same counts, the results for GGUAAGCAAUAUUACGAGCA are -0.801 ± 0.093 and -0.377 ± 0.12.
On the same counts, the results for CCCAAGCAAUAUUACGCUUA are -3.38 ± 0.22 and -2.78 ± 0.21.
Taken in the same sequence, the figures for AGUCAGCAAUAUUACGGUGA were -1.87 ± 0.12 and -0.192 ± 0.096.
Take GGCGAGCAAUAUUACGAUAG: the “self-splicing fitness (ln)” value was -1.89 ± 0.18 (30 °C) and -2.67 ± 0.38 (37 °C).
As to UCGCAGCAAUAUUACGAUCC, the “self-splicing fitness (ln)” value (37 °C) was -1.68 ± 0.36.
With UUUAAGCAAUAUUACGAAAG, the “self-splicing fitness (ln)” value reads like this: (30 °C) -3.48 ± 0.32; (37 °C) -1.54 ± 0.25.
Taken in the same sequence, the figures for CCAAAGCAAUAUUACGCGAA were -2.8 ± 0.44 and -2.5 ± 0.28.
Taken in the same sequence, the figures for GGGCAGCAAUAUUACGGUCA were 0.308 ± 0.069 and 0.187 ± 0.083.
On the same counts, the results for CCCCAGCAAUAUUACGCAGU are -3.25 ± 0.12 and -2.71 ± 0.15.
On to UUCUAGCAAUAUUACGCGAG, for which the “self-splicing fitness (ln)” value by setting is: (30 °C) -2.97 ± 0.28; (37 °C) -1.45 ± 0.21.
Turning to CUGGAGCAAUAUUACGAGAC, the “self-splicing fitness (ln)” value (37 °C) was -0.723 ± 0.29.
Turning to GCCUAGCAAUAUUACGUGAA, the “self-splicing fitness (ln)” value (30 °C) was -0.836 ± 0.073 and the “self-splicing fitness (ln)” value (37 °C) was 0.346 ± 0.077.
On the same counts, the results for UCGAAGCAAUAUUACGCAGG are -3.31 ± 0.23 and -1.8 ± 0.16.
As to CUGGAGCAAUAUUACGUUAC, the “self-splicing fitness (ln)” value runs as follows: (30 °C) -2.8 ± 0.23; (37 °C) -1.42 ± 0.41.
On to UUCGAGCAAUAUUACGCAUU, for which the “self-splicing fitness (ln)” value (37 °C) is -2.81 ± 0.43.
Regarding CCACAGCAAUAUUACGGGGA, the “self-splicing fitness (ln)” value reads like this: (30 °C) -3.12 ± 0.19; (37 °C) -2.51 ± 0.17.
Taken in the same sequence, the figures for CCUCAGCAAUAUUACGCAGU were -3.09 ± 0.22 and -1.67 ± 0.28.
On the same counts, the results for AAGUAGCAAUAUUACGCGCC are -0.381 ± 0.2 and -0.0421 ± 0.23.
On the same counts, the results for UGCCAGCAAUAUUACGAGUA are -1.49 ± 0.1 and 0.112 ± 0.11.
With GCCGAGCAAUAUUACGCUUC, the “self-splicing fitness (ln)” value (30 °C) is -2.53 ± 0.18 and the “self-splicing fitness (ln)” value (37 °C) was -1.65 ± 0.25.
